Protein production data for 23 sequences are collected here from a protein production outcome set (Wang et al. 2014).

The data set is described as follows: label from the status in PepcDB records.

As to “MFKVGPIGSKQYYDKSWEEKGRNMISIFGILVHDGHVKANIQVRLNDDEYVTGLSGIFWERKVTSLTFHTNQGKHGPFCNGTGYSSSYMADYKKEIDVKIRDRREFGGFFGSFDDEFDGLTSIGIYVYPTYDNKPTLNQAWDPLYAFAHNQIPTIADGIPVMHIRYKPKLKDRIFSKLDFKRAMLCLIKVFLD”, the protein production result is given as “failed”.

Consider “MFKVPKQSYTAEFKAAAVQRVKDGQGVGAVARELSVSEQTLRNWMKAEQAGKLGGAGAKVVTPEQMELSRLRAENKRLQMELEIAKKAAAYFAKDLL”, for which the protein production entry is “failed”.

Turning to “MFLDMLSLIRGQKIKLNDALQGQSSFYIQIHYQAAFDLDIASFGLDSQYRLSDERYMTFYNQPETPCQAVRLIENQNKCSRFLVDLAKLPATIQHLVLTAAIDGQNIMSQLQQVTVQILNLQLQPIAELKLDASIFDQERATMLIEIYRKEGIWRLAAIGQGFNAGLAALIQHFGGEVAEEPTAQQTTPVAPQSNIDLKKKLSLQKAEKTGNASIIDLTKKSLVQLEKKKLLGVTARVALVLDASGSMDGQYRRGDVQKVVNRLMPLAIHFDDDGSFECWAFAAETTQLDDVTLSNVNDFINSTQRGWKNWQVGARYNEEIPAIEAVINYFQKFQDQIPTYVLFISDGGVGSRRQMQKILSQAAKLPIFWQFVGIGGRNYGALEKLDEMSGRIVDNCNFFSLDRIDGVSDERLYELLLQEFPDWLIAARQHQIVRN”, the protein production result is “failed”.

Turning to “MFLDRERELQFLERRYEMGGPEFIVIYGRRRVGKTALLLEFISRHGGIYLLARETSNLENLKRFSDRLSEYFGDDFLKRNPFQNWDAFLEYLNQKATERLVVVIDEFPYLVKGDRSLPSILQEYWDLKLSNGRIFLIICGSSISMMEKLLGYKSPIYGRRTGQINLKPVDFLHAREFLPGYSLEDFIKAYGILGGSPAHLLEFDDSKTIKENLLEYLRSDSLLYQDAFFVLREELEEPRNYFAIMEAVAAGKTSLGEIMNETGLSRATVAKYLSVLIELDFVKREIPITASRKSRRGRYYIKDNYFAFWFRYIHPNIDFIESERRKELLELIIDDLPNYLGGIFENVAIEFLPLISNKLPFKPLKIGRWWHKNEEIDLVAFNEKEEKAILIEVKWKTLNKIEANKILKDLNRKSKILKMKEWEQYHGIIAKRVKDKEKIKGGLIWDLEDIENLKFSPELEHHHHHH”, the protein production entry is on record as “not failed”.

With “MFLEIAKVYLQGLGLASITVILVGIIWVFWRAKKNIDKTARERQSVLYDVLLIALMTAPILAFAFVAIILMIKA”, the protein production result is “failed”.

Turning to “MFLFMVSRNFSRRDFLKMTAGGVVLASAMPTLSWASLPDEPRVLAMNNLNTGELLETCYFDGNRYVGKELQRLNEFCRDHRRNEVHPMDKRLFDQISQIQKLIGTESEVIVISGYRSPVTNASLRSGSTGVAKKSLHMEGKAIDFRLDGVKLSTVRDAAISLKAGGVGYYPGSNFVHIDTGAVRSW”, the protein production entry is “failed”.

With “MFLGEDYLLTNRAAVRLFNEVKDLPIVDPHNHLDAKDIVENKPWNDIWEVEGATDHYVWELMRRCGVSEEYITGSRSNKEKWLALAKVFPRFVGNPTYEWIHLDLWRRFNIKKVISEETAEEIWEETKKKLPEMTPQKLLRDMKVEILCTTDDPVSTLEHHRKAKEAVEGVTILPTWRPDRAMNVDKEGWREYVEKMGERYGEDTSTLDGFLNALWKSHEHFKEHGCVASDHALLEPSVYYVDENRARAVHEKAFSGEKLTQDEINDYKAFMMVQFGKMNQETNWVTQLHIGALRDYRDSLFKTLGPDSGGDISTNFLRIAEGLRYFLNEFDGKLKIVLYVLDPTHLPTISTIARAFPNVYVGAPWWFNDSPFGMEMHLKYLASVDLLYNLAGMVTDSRKLLSFGSRTEMFRRVLSNVVGEMVEKGQIPIKEARELVKHVSYDGPKALFFG”, the protein production entry was “not failed”.

Consider “MFLHSVNLWNLAFYVFMVFLATLGLWDVFFGFEENKCSMSYMFEYPEYQKIELPKKLAKRYPAYELYLYGEGSYAEEHKILPLTGIPVLFLPGNAGSYKQVRSIGSIALRKAEDIDFKYHFDFFSVNFNEELVALYGGSLQKQTKFVHECIKTILKLYKGQEFAPKSVAIIGHSMGGLVARALLTLKNFKHDLINLLITQATPHVAPVMPLDRFITDFYTTVNNYWILNARHINLTTLSVAGGFRDYQVRSGLTFLPKLSHHTSALSVVSSAVPKTWVSTDHLSIVWCKQLQLTTVRAFFDLIDADTKQITQNSKKKLSVLYHHFIRHPSKHFEENPAIISDLTGTSMWVLVKVSKWTYVAYNESEKIYFTFPLENHRKIYTHVYCQSTMLDTNSWIFACINSTSMCLQGVDLSWKAELLPTIKYLTLRLQDYPSLSHLVVYVPSVRGSKFVVDCEFFKKEKRYIQLPVTHLFSFGLSSRKVVLNTNGLYYNLELLNFGQIYQAFKINVVSKCSAVKEEITSIYRLHIPWSYEDSLTIAQAPSSTEISLKLHIAQPENNTHVALFKMYTSSDCRYEVTVKTSFSQILGQVVRFHGGALPAYVVSNILLAYRGQLYSLFSTGCCLEYATMLDKEAKPYKVDPFVIIIKFLLGYKWFKELWDVLLLPELDAVILTCQSMCFPLISLILFLFGTCTAYWSGLLSSASVRLLSSLWLALKRPSELPKDIKMISPDLPFLTIVLIIVSWTTCGALAILLSYLYYVFKVVHLQASLTTFKNSQPVNPKHSRRSEKKSNHHKDSSIHHLRLSANDAEDSLRMHSTVINLLTWIVLLSMPSLIYWLKNLRYYFKLNPDPCKPLAFILIPTMAILGNTYTVSIKSSKLLKTTSQFPLPLAVGVIAFGSAHLYRLPCFVFIPLLLHALCNFM”, for which the protein production entry is “failed”.

Regarding “MFLSVVTVAFRNYEGVVKTWRSLRNLARDPGLSFEWIVVDGGSEDGTREFLRKRHGEFNLRFISEKDRGIYDAMNKGIALAQGRYTLFLNSGDAFHDDAALFVRQLARQKGEAMYIGDALLDFGGGHKIRRKAKPGYYIYHSLPASHQAIFFPTAALKKYPYDLQYHVSSDYALAARLYKAGYPFRRINGLVSEFSMGGVSTSNNLELCQDAKNVQRKILRVPGFWAQLSYLLRLKTTGKTKARYNKVLEHHHHHH”, the protein production entry is given as “not failed”.

As to “MFLVCGEALFDIFTRADDGGSLNRLGFDAIAGGSPFNVAIGLRRLGVEAAFFAGLSTDYLGRRLRAVLEQETVNAEHLIEFDAPTTLAMVAVGSDGSPTYSFRGDGCADRQLRLEHLPELDERVRGIHVGSFSLVVQPIADTLLALVARESARRLISLDPNVRLNPAPDIQRWRTQIAAFAEHAHLIKVSDEDLHLLYPDSDPQQIAEGWLGKRTQLVIVTRGTQGASVFTRQHGTWSVPAKTVVTADTVGAGDTFQAALLTFLSERQLDTPQGLSTLSRETLDEMLNFAVGAAALTCTKVGPDLPYRHQLG”, the protein production entry is “failed”.

Regarding “MFLVISVVGSSNIDIVLKVDHFTKPGETQKAIEMNVFPGGKGANQAVTVAKIGEKGCRFVTCIGNDDYSDLLIENYEKLGITGYIRVSLPTGRAFIEVDKTGQNRIIIFPGANAELKKELIDWNTLSESDILLLQNEIPFETTLECAKRFNGIVIFDPAPAQGINEEIFQYLDYLTPNEKEIEALSKDFFGEFLTVEKAAEKFLELGVKNVIVKLGDKGVLLVNKNEKKHFPTFKVKAVDTTAAGDVFNGAFAVALSEGKNPEEAVIFGTAAAAISVTRLGAQSSIPAREEVEAFLKNL”, the protein production entry is given as “not failed”.

As for “MFLVLCSVMIFIGFLLQIYVWPRIPKSIFKYRGLVLSISLIILIFVVRIPLEITALTLPFYLMMFFGLFLFWKDRKL”, the protein production result is “failed”.

On to “MFLVTGVFVSVRHERTGTGTTARESVQRITWFGTLRDDGVALVMPLSDRMLPTGIIREVPEERFLEEFMPDQATYEEHFRETAESLRGRLQLASTLPTDLYPEERILLDALSALLHGRSAAKPVDADIPAVLELLAHGQEGRSAGAFQTRLSGAAVDYRRQGDYPRALLFYDRALTMQGQEDRLLFNVARVHYEMGELAEAETCLKRALESNPALEEAGRFLAFLQKTTLQPQAGDE”, for which the protein production entry is given as “failed”.

For “MFMAENRLQLQKGSAEETIERFYNRQGIETIEGFQQMFVTKTLNTEDTDEVKILTIWESEDSFNNWLNSDVFKEAHKNVRLKSDDDGQQSPILSNKVFKYDIGYHYQK”, the protein production result was “not failed”.

For the sequence “MFNAYREYWNNITTMNASATRAQYWWPQLINYLVLGIYSAITGVYRYIEVTPNDGTIIKEWNTVTIIFFLLTALIWLANFTVRARRLHDRDHSNWWILFYLLPFIGTLVIFITLILPSKSHTRWPVNQSEI”, the protein production result is listed as “failed”.

On to “MFNKRLKQQLATLSDELNALQQFKACLESQVLNLELDGEGAIRRANQNFIQALELDGQPLAGVALESIISRHPQAVPLYREFKAALGRNESYTGQLRLQRGGGREAWLQVCVQPIRDGAGRLDHYNLICTDQS”, for which the protein production entry is listed as “failed”.

For “MFPAQEEADRTVFVGNLEARVREEILYELFLQAGPLTKVTICKDREGKPKSFGFVCFKHPESVSYAIALLNGIRLYGRPINVQYRFGSSRSSEPANQSFESCVKINSHNYRNEEMLVGRSSFPMQYFPINNTSLPQEYFLFQKMQWHVYNPVLQLPYYEMTAPLPNSASVSSSLNHVPDLEAGPSSYKWTHQQPSDSDLYQMTAPLPNSASVSSSLNHVPDLEAGPSSYKWTHQQPSDSDLYQMNKRKRQKQTSDSDSSTDNNRGNECSQKFRKSKKKKRY”, the protein production entry is “not failed”.

As to “MFPFTHVHAFNKGNEEVYMDVENGKNGEGSVFRMPLHYPRYSKEDYQDMPEWKLDRVLADYGLSTYGDLAHKRDFAIGAFLWISTRNPKLYQEKSINSKLKKDTKSAHA”, the protein production result was “failed”.

Consider “MFPSFITHIQSPNSHHHYSSPSFPFSSDFLESFDESFLINQFLLQQQDVAANVVESPWKFCKKLELKKKNEKCVDGSTSQEVQWRRTVKKRDRHSKICTAQGPRDRRMRLSLQIARKFFDLQDMLGFDKASKTIEWLFSKSKTSIKQLKERVAASEGGGKDEHLQVDEKEKDETLKLRVSKRRTKTMESSFKTKESRERARKRARERTMAKMKMRLFETSETISDPHQETREIKITNGVQLLEKENKEQEWSNTNDVHMVEYQMDSVSIIEKFLGLTSDSSSSSIFGDSEECYTSLSSVRGTISAAGNSNVLTKNPN”, for which the protein production entry is “failed”.

“MFREFINLLFMQFKMIKAYLPVFIFFSILFPLGFIFSFGTIIQRTLSTYLISGSITFFISINSIISVAQNLALERSSGRFSLMIASGIPIQLYAISITISNGIQTLMLIPVFLVLGYFLLGVRISSALFFVLSIIGSIYMASMVGLLIGTAIRNLHAVNQWSSIIGFILSFFAPVYFPLTQIPLPFRYLAYLEPTTYVSQSTYFALVGNPISLAWFGGTVVIGFLFSFLSSLLMKKAF”: the protein production entry is “failed”.

In the case of “MFRRPRLRALSALVLAALTLPAVAQQVLIRGATVHTATSQGTLRNTDVLVQGGVIRAIGTGLAVPTHGRVVEAKGRPLTPALFGGITEIGIEEVSGEAATVDSGVKLTEQPMRPEFDVTLAYNPDSVLIPVARVEGIGFTALGATTSGAFIAGQGGIVRLDGGPDPVGPHALFVRLGAAASDLTGSSRAAQWMLLDQLVAEARGRVPADSPHALLTPVGRSVLANYLAGRGRIVVQVERAADIRQLLRWAQREKVRIAIAGGTEAWKLAPQLAQAKVPVLVDALADLPSTFDQIGATLENAARLRAAGVEVSFTQSGDASHNARKLRQLAGNAVANGLPWESGLAGLTRVPAEIFGVGDRIGSIAVGKQADLVLWDGDPLDVAHYAEQVWMGGRDMPMRSRQTDLRDRYLQQAGPLPRAYQR”, the protein production entry is “failed”.

As for “MFRSFPVDSPHVYLRWVAISISQPVIRHGSSVVFVGGTPASSFLWPLCINRQNQIQTHFLKSFRIQEFLPRKSQCSRVTTIKETIFYPICLKSSKQIIVNATTFQCINYLLPIQFAYRNEPFRKFFATRIDFSSNQIERTNHSNRI”, the protein production result is reported as “failed”.

Regarding “MFRSKSCREETRSSSITNKYHCFSHGEKSESEPTNQQPPVMMRSYSTSTYNAYQNPTIVRDDSNNKSKRSNKVKKKGFKGLCEAEIQRKKRVASYNVYGVEGRVKGSMKKSFKWFKETCSNAVYGLW”, the protein production result is recorded as “failed”.
